According to patent US20210024625A1 (published 2021):

T1: PfRH5 from Plasmodium falciparum strain 3D7 (Plasmodium falciparum, UniProt Q8IFM5 25-526)
T1 sequence: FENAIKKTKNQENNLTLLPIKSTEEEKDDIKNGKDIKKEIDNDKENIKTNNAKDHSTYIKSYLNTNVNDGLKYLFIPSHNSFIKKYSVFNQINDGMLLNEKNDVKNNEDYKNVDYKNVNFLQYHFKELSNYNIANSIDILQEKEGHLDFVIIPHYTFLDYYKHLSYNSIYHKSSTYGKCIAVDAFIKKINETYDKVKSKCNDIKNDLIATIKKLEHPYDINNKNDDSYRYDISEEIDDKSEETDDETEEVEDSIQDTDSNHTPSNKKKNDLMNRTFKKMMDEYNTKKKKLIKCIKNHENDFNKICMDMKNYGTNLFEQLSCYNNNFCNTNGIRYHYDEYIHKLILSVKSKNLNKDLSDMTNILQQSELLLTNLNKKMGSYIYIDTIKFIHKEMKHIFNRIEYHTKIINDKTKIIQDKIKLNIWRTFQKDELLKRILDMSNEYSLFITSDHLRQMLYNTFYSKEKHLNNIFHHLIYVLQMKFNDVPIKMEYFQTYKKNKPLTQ


Key:
Test in all cases: cell-based or functional assay
[1] = molecular target: PfRH5 from Plasmodium falciparum strain D10 (Plasmodium falciparum)
[2] = molecular target: T2, PfRH5 from Plasmodium falciparum strain Dd2 (Plasmodium falciparum)
[3] = molecular target: T3, PfRH5 from Plasmodium falciparum strain 7G8 (Plasmodium falciparum)
[4] = molecular target: PfRH5 from Plasmodium falciparum strain W2-mef (Plasmodium falciparum)
[5] = molecular target: T1, PfRH5 from Plasmodium falciparum strain …
[6] = molecular target: PfRH5 from Plasmodium falciparum strain HB3 (Plasmodium falciparum)
[7] = molecular target: T4, PfRH5 from Plasmodium falciparum strain FCR-1/FVO (Plasmodium falciparum)
[8] = molecular target: PfRH5 from Plasmodium falciparum strain Cam3.II (Plasmodium falciparum)
[9] = molecular target: PfRH5 from Plasmodium falciparum strain RF7 (Plasmodium falciparum)
[10] = molecular target: T2, PfRH5 from Plasmodium falciparum strain …; remark: listed apart in the source
[11] = molecular target: T3, PfRH5 from Plasmodium falciparum strain …; remark: listed apart in the source
[12] = molecular target: T1, PfRH5 from Plasmodium falciparum strain …; remark: listed apart in the source
[13] = molecular target: T4, PfRH5 from Plasmodium falciparum strain …; remark: listed apart in the source

Binder | Max growth inhibition (%) [1] [%] | Max growth inhibition (%) [2] [%] | Max growth inhibition (%) [3] [%] | Max growth inhibition (%) [4] [%] | Max growth inhibition (%) [5] [%] | Max growth inhibition (%) [6] [%] | Max growth inhibition (%) [7] [%] | Max growth inhibition (%) [8] [%] | Max growth inhibition (%) [9] [%] | Maximum growth inhibition (%) [10] [%] | Max growth inhibition (%), Chloroquine Phosphate N/A [11] [%] | Max growth inhibition (%), Chloroquine Phosphate N/A [12] [%] | Percent Maximum Growth Inhibition, mAb (6.67 µM) + AHIS (10%) [13] [%] | Percent Maximum Growth Inhibition, mAb (6.67 µM) + ANS (10%) [13] [%] | Percent Maximum Growth Inhibition, mAb (6.67 µM) + HHIS (10%) [13] [%] | Percent Maximum Growth Inhibition, mAb (6.67 µM) + HNS (10%) [13] [%] | Percent Maximum Growth Inhibition, mAb (6.67 µM) + No serum [13] [%]
H1H29094P (antibody, V domains shown) VH: not shown VL: DIQMTQSPSSLSASVGDRVTITCQASQDINRDLNWYQQKSGKGPKLLIYDASNLETGVPSRFSGNRFGTDFTFTISRLQPEDIATYFCQQYKNLPYTFGQGTKLEIKR | 35.9 | 41.6 | 29.9 | 34.9 | 14.4 | 45.4 | 51.2 | 26.2 | 15.2 | – | – | – | – | – | – | – | –
H1H29127P (antibody, V domains shown) VH: QVQLVESGGGVVQPGRSLRLSCAASGFTFSSYGMHWVRQAPGKGLEWVAAIWYDGSNKYYADSVKGRFTISRDNSKNTLYLQMNSLRAEDTAVYFCARGEHYYGSGPFDPWGQGTLVTVSS VL: DIQMTQSPSSLSASVGDRVTITCRASQSISNYLNWYQQKPGKAPKLLIFAASSLQSGVPSRFSGSGSGTDFTLTISSLQPEDFATYYCQQSYSSPLTFGGGTKVEIKR | 74.4 | 64.7 | 61.2 | 53.6 | 63.9 | 59.4 | 61.1 | 47 | 25.7 | 56.9 | – | – | – | – | – | – | –
H1H29187P2 (antibody, V domains shown) VH: QVQLVESGGGVVQPGRFLRLSCAASGFTFSNSGMHWVRQAPGKGLEWVAGIWHDGSYKYYVDSVKGRFTISRDNSKNTLFLQMNSLRAEDTAVYYCARDDYYASGTSVDVWGQGTTVTVSS VL: not shown | 79.6 | 66 | – | 67.3 | 70.7 | 63.9 | 72.2 | 49.2 | 32.7 | – | 49.3 | 47.6 | 89.4 | 80.1 | 85.4 | 85.9 | 85.3
H1H29147P2 (antibody, V domains shown) VH: QVQLVQSGAEVKNPGSSVKVSCKASGGTFSSYTINWVRQAPGQGLEWMGGIIPLYGTANYAQKFQARVTISTDESTNTAYMELSNLRFEDTAVYFCASTLELRAFDAFDIWGQGTMVTVSS VL: not shown | 81.4 | 65.3 | 65.2 | 64.7 | 60.3 | 64.8 | 70.3 | 51.9 | 31.4 | – | 47.3 | 34.9 | 86.2 | 80.3 | 83.4 | 85.6 | 84.1
H1H29183P2 (antibody, V domains shown) VH: QVQLVQSGPEVKKPGASVKVSCKASGYTFTSYGISWVRQAPGQGLEWLGWISGFNGRTDYTEKLQDRITMTTDRSSSTAYMELRSLRYDDTAVYYCARDGLEKLGDYWGQGTLVTVSS VL: not shown | 6.79 | 0.68 | 17.8 | -0.55 | 5.68 | 4.92 | 16.1 | 8.66 | -6.27 | – | – | – | – | – | – | – | –
H1H29179P2 (antibody, V domains shown) VH: QVQLQESGPGLVKPSQTLSLTCTVSGGSISSSGYYWSWIRQHPGRGLEWIGYIYYSGSTYYNPSLKSRVTISVDTSKNQFSLKLNSVTAADTAVYYCARVDYGSGSSFDYWGQGTLVTVSS VL: not shown | 62.5 | 13.5 | 34.1 | 22.9 | 24.2 | 40.9 | 49 | 33.4 | -2.99 | – | – | – | – | – | – | – | –
H1H29143P (antibody, V domains shown) VH: EVQLVESGGGLVQPGGSLRLSCAASGFTFNNYAMSWVRQAPGRGLEWVSAISGSGDSTYYSDSVKGRFTISRDNSKNTLYLQMNSLRAEDTAVYYCAKDQGLYYYGSGSFDYWGQGTLVTVSS VL: not shown | 79.4 | 62.7 | 61.9 | 58.3 | 60.3 | 60.9 | 67.2 | 53.2 | – | 56 | – | – | – | – | – | – | –
H1H29171P2 (antibody, V domains shown) VH: QVQLVESGGGVVQPGRSLRLSCAASGFTFSSYGMHWVRQAPGKGLEWVAVISYDGSNKYYADSVKGRFTISRDNSKNTLYLQMNSLRAEDTAVYYCAKDDWNYDAFDIWGQGTMVTVSS VL: not shown | 10.6 | 7.71 | 17 | 0.74 | 4.04 | 0.52 | 11.7 | 5.45 | -12.5 | – | – | – | – | – | – | – | –
H1H29106P (antibody, V domains shown) VH: QVQLVESGGGVVQSGRSLRLSCAASSFTFSSYGMHWVRQSPGKGLEWVAVISYDGSNKYYGDFVRGRFTISRDNSKNTLYLQMNSLRAEDTAMYYCAREVRRYYYYGMDVWGQGTTVTVSS VL: not shown | 74.9 | 54 | 55.5 | 48.9 | 58 | 48.4 | 54.3 | 51.7 | 27.4 | – | – | – | – | – | – | – | –
H1H29109P (antibody, V domains shown) VH: EVQLVESGGGLVQPGRSLRLSCAVSGFTFDDYAMHWVRQAPGKGLEWVSGISWNSGDIDYADSVKGRFTISRDNAKNSLYLQMNSLRAEDTALYYCAKDTLSGTGTTWYYFDYWGQGTLVTVSS VL: DIQLTQSPSFLSASVGDRVTITCWASQGISSYLIWYQQKPGKAPKLLIYAASTLQSGVPSRFSGSGSGTEFTLTISSLQPEDFATYYCQQVNSYPLTFGGGTKVEIKR | 44.8 | 42 | 39 | 37.9 | 32.2 | 32.2 | 56.7 | 35.9 | 8.24 | – | – | – | – | – | – | – | –
H1H29104P (antibody, V domains shown) VH: EVQLVESGGGLVQPGRSLRLSCAASGFRFDDYAMHWVRQAPGKGLEWVSGINWNSGGKGYADSVQGRFTISRDNAKNSLYLQMNSLRTEDTALYYCAKDRGIAARLLSRDAFDMWGQGTMVTVSS VL: DIQLTQSPSFLSASVGDRVTITCWASQDVSSYLAWYQQKPGKSPKLLIFAASTLQGGIPSRFSGSGSGTEFTLTISSLRPEDFATYYCQHLNTYPYTFGQGTKLEIKR | 55.7 | 61.3 | 35.2 | 47.4 | 34.4 | 39.8 | 67.4 | 50 | 23.6 | 54.1 | – | – | – | – | – | – | –
